# Data published in the domain aggregation screens of Martell et al. (2025).
# Assay: soluble fraction after stress (log2 fold change); higher = more stays soluble; pooled small domains, quantitative proteomics
# Settings: stress: 75 degC
# 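Note: 20 min heating vs room temperature control held 20 min.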
row,Sequence,soluble fraction (log2)
1,HMLSGNLTADAHVHRGLQALSDGRNEDALVDFTKATEVQADFAEAWNKRATVNYLLGRYDAAVLDIQKTLE,0.257
2,HMLPDAESFSYEVPYTKGDGGTYNYEGKIKAQNADAARDEIIRQAQVYFQMNPQFTPDYPSTTITSLD,0.14
3,HMEWNREQLEQIVLQHIRKHGFITRATYTELTGRLKNSALADLKSFAAEGIIKRVGRGNQMHFIVPL,-2.35
4,HMRDSLVGLEGVVVREVDDETLAGKVQIGSMEWSARSESGRIPAGRRVVVLRAEGVHIVVKEV,-0.407
5,HMHPEITLHPVRANIYSISVKNATSMEIYSVSGQLVGIRELKEGTNTLDLTGYINGVYIVNLQNKAFKLVK,-2.38
6,HMSEFSDRFRLLKDESGATLKELSEQLDITVPNLSYYMKGREPSYDILIKIADYFGVTTDWLIGRTDER,-1.18
7,HMHSESAAHQRTSVELFARIPETGNLQSAQRHFDVINQFGRFPHRNKILQRPSSEQEEAFLRQPGSG,0.265
8,HMSKYERVYTGSEINVNHLKSQLEDAGISSVVRNDHESAIRAGFGSDYDRGVLLFVEKDNLLRAKHIIEKT,0.126
9,HMITPNQAAVTLKVSTSTLRRWSSDFEPFLSPRKGVKRLYTIEDIATLKRIQGLYKQGMNTAQVQA,-2.25
10,HMGGRSARVRRAVLDAVVELLGEGGVRAVTIAEVAKRSGVNASSIYRRWRSIDALILDAAQDL,-2.51
11,HMSIGLEELVGSHGEAITDLRPAGQVSIAARRISAVSEGDFINKGDSVEVLSVEGYRVMVRKLET,-0.34
12,HMERKMKNNISDQTTYDTDKILNFNGKGYLNGLVIPNNYQIKEEGYYVFRQVALDGREQILYFTIQDLS,-1.98
13,HMSAIEIDAEKILNYLTDRGGKMPYGDTTAPEVIKDKFNISKAAFKRALGFLLRSNKIEQIDGWTYI,-0.433
14,HMFDGYQWLKRDIIRGVYQPEEKLRMSLLTNRYGLGVGPLREALSQLVAEHLVTVVSQKGYRVAPM,-0.387
15,HMGFAANLSRLMEYHNISMYRLAKEVGVHQTTVKNWLEEESEPKIAALEKIVGLLGVSYDELLG,-4.58
16,HMAAELHPYGADSYRGDNPPAGYEIKAKEESKKFHTPSSPWYGRTIAEIWFRTEEAAEAAGFINAVK,-0.246
17,HMDIYKKFIIPATYFGSRLDHVLSELLPELSRSKIQNMIKQNLVMINGNHAAQKQKVVGDEEIIIKDI,-0.483
18,HMVQQAVNMAKPGKLFTGPSPTSKALRDLDAGAMLYPTGEKQGPFWKVQDELGNEGWVAMGLLQLA,-0.0352
19,HMELDREALSDGLRRLSQLLAEDDIESRTLFRELAPGLKEQLGDDAVEKLAGHISRYEFEQAGALLATSG,-0.0504
20,HMEFQISLAAARVNANMTQEDTARAMKVSKTTIVNWEKGKVIPGIPEVEMMSRLYGIPQDYIFLP,-3.08
21,HMEEKVEVPNLSGKTYQQAKALLESYGLVAAKGGEEESEEPVGKVSRWSSAGKSVKKGTTITVWISGGI,-0.298
22,HMGFTDREREIIRNDLVATGRELFGTFGLKKTSIEDLTKAVGIAQGSFYTFFNSKEELYLEVMDREGEA,-1.14
23,HMITEQEFQRVAAYVKNKAGINLNEKKVLVQGRLDSYMQRKGYSSYDEFMDRVERFPTGPEAEDLMNALTT,-0.0412
24,HMLELLSMEDIQRTRVGDLIATVRQVDRQHALVLDRDPETGKPAVRGIFSLSQISLRLGLNI,-2.17
25,HMSLGSQEYSIGFRNGDSTYHYIDKALKELAYEGVIDELSTQWFGSSRAVDFPSQKDALSELGYIA,-0.123
26,HMEAFELTPREKQVLQLLVQGKAYKIIAADLDITYDTVRAHIKKIYEKLHVGSMTEAVAKAIQHKL,-2.08

row,Sequence,soluble fraction (log2)
1,HMIQTKNVTFTINEKTKIANIPLKSLKILSQEDNRITLSYEKNSLKIDEIISYFSDKNINILDITTD,-1.59
2,HMNVWESVDLRQEQHEAKRRLILKQAALLFADRGFHETTIDQIAEALNVTKPTIYYYIESKEDLLYQVA,-0.135
3,HMSVKIELNENEQAIFTAVQKVNEAVLPELRAQFSDMSNKAWDNSVKMLTKNNLLKVSKEGEILYIRM,-1.22
4,HMKTPAPRETILSLFRQTPDGFVSGERISDELGVSRTAVWKHIRNLRQAGYQIEAIPSRGYQLQQS,-0.556
5,HMDAKSRFQEWVQAETGITPTYRIIGDSGPDHAKTFIAQVLLGERVVGEGVGSSKRAAEQAAAQAALAAM,-0.0803
6,HMDDPDALITDSQLKAIHVLLGKLKIDDNLKHAYIADVLQLKDIPETLKTLTKHQGSTIIERLNLLIKDA,-0.0192
7,HMSKGKNEVIAYLKAHNDHRLTVAEILDGLKEEGISINRSTIYRNLDKLVENGDILAFKGKDSESAFYQYS,0.0611
8,HMRGINDLSLVDPQGRIRKDGEQYVVAFGRHKGKEISQIISQDPSYLNWLLSPKGIEDDATRELIRTQYS,-0.206
9,HMAKTALEQAQAMVAAYVAAEQQILLGKEVRMGGPGIDRWLRFEDLQEVRAGRKEWESTVTRLQNTAA,-1.27
10,HMGEIILVPDVKAQGVSDARYTLNQAGLDAVIADSSYNRNSPPGAVLEQMPAPGSKVKSGHAIYLIINTT,0.138
11,HMEELVGFEEKVRSILTSPLSAKEIKEKTHIEIDTRKLSKMLSELSFIKTEKKNGKKIFRLVS,-0.243
12,HMLFSDSDLKSLLDKDISYVIEMYKAASKEQKRIISDMVAQKVMEKKYIDANILIQLGELTGINYMDL,-1.33
13,HMSQPALSYAFAKAQGVIVTALGDVAEVARRKGSQPQALAEVRRIAGRPLALREVDDAAFDRLLQDHYARS,-0.646
14,HMEDAWMKKELWDAIATLPKKQRLVMTMRLTNNHSYKEIAAILGISENSAKVSYHHAVERLKEKFK,-2.23
15,HMERFLENAIPVLGETGLDIKSATEDFENALIRQALHLSGGNKNRAATLLGLKRTTFVEMLKRKSL,-1.12
16,HMNPVVATTIILDGEIIKDNLAEANLSEEWLLEELKRQNFNDVKEVFYAEWLDGKQLFAYPYTK,-0.537
17,HMFDGRSDAEKTLDLIKTAIDNILKGGAIQEYKIGTRTAKKYDMAELQVLKGEYAAMVAREKQAETMA,-0.412
18,HMGRPQISDELRNAIIEVAKDNRDWGYIRIQGQLKYLGYRVSTATIGKVLKKAGLEPQPDRRRK,-1.92
19,HMNEAMIMIDLKGKSRDEAVKELDELNLKYRFTGNGIVKDQKPKAGEEINSDTVVEVELSEIK,0.12
20,HMQNSPVFAASDIEDIRVGMTVEHQRFGQGRVMSIEGNGPNKKTTVLFEGIGEKQLLLQYAKLKIV,-0.664
21,HMAAKADAVKKAIAAIGKVDASEDSKAKVEAARKAYAALTEDQKKLVEASQLKLLTEAEAAYQQAVEESKK,-0.283
22,HMGNWENVEKETTEAIMAVKNGEAVWVDLAPANRMIRQMQHELVEQYGLLSQSYGKEPKRRIRIFQNP,-0.462
23,HMSQTELIIVEEEMDGERLDAFLAEQVEQLSRSAVKNLINEGQVLVNGAKQKASYHVREGDEISIEIPEPQ,0.836
24,HMDSGVPEWLASALRASPVAWKNFLALPPSHQRRYVGWISSARRDETRNRRIAEAISLLVEHKRLG,-2.18
25,HMAPIEVPYNVFRQQVVEGNVESVATRADTVQGYFETPVTLPARPDAAAAEPVTVERFSTTLPSF,0.27
26,HMEDISLYKILRAHSIDNLKLSQWIIDSLKTKFSTIGELQDAKIDDIRMYRIQDVRIEKIKNAVTEYMA,-1.08

row,Sequence,soluble fraction (log2)
1,HMTIFGWQQDETGKWYRNADGTFYENGWKEIDGAQYYFDENGYVTTGWLELDGKDYYFDEEGKYDSTKVR,-0.445
2,HMSFESMGLTPRQADVLTLLLQGKSNKDIARRLVLSVETVKDHVQAVLRALGVSSRTQAVLAVGQMTQQ,-0.584
3,HMSLSEGVSADVVADVQARLMELGYMDEDDPDGNFSESTRIAVEHFQQQAGLPVTGTVDKATLDALNSPD,0.264
4,HMSSFFLIDVSQVRIGMYIQLDVGWMRHPFPVNSFRITNQEQLDTLRSLNLAQVRWSPAKSDL,-3.64
5,HMTDRINIGDVVTIISKDREDSQIVYMRYHKGKLSILGELILNKTKNDTVDFKGRTYDIATIEKS,-2.22
6,HMDIVQLSEKINVMKMEIPAQAIGKTVLEVNFRARFDLNIIAIENGGKLVEVIKPDYVFREGDILFLSGS,-3.76
7,HMVDSVIGSVGRVTVDIDNVEALGQVKLGGMEWSARSTSGDPIPAGTEVRVDRVEGVKVFVTPV,-0.117
8,HMIEMAGGYRKGDRVELHSLKGAAEHNGKQGTVVGPQGERVKVLLDDSDSKTLALKVTNLTKLESA,0.0656
9,HMLLRSEDAIELGKSQLEDALAPYKIETLDTGTVQQLLDSLKLNSLESLYQEIGLGNRMSTIIAHRLLGE,-0.216
10,HMLDRNKLNELDAYIESFEDKPSHLIMILHRAQGLFGYLPKELQIYVAEKTGVPAAKVYGVVTFYSFFTMK,-3.42
11,HMDTIYMVVAKNIKYYRLIKSMSKKDLAEAVNVTPMAISNYENGKRKPEIDILKKIANVLGVRVVDFLTVR,-4.45
12,HMQSRRTPASLVERVRQLNGQYQDKEIAELLNREGIKTAHGNEFNAKRIEMIRRHNGISKHSAQ,-0.075
13,HMREVDKRYYKINIAGTDRIFTNVYRVGDRYSAYEADKNGKPGKFLYSLSQAEIDRAVISGSFDFK,-0.225
14,HMATETELNLQLMRIIDELHTDHNTWGSRKITDYLRLQGYEINRKRIQRLMDVMDIQVVYPK,-2.07
15,HMQAALEVQASAGVLAPVPPDQRQALLDTLAQDPRPGYQHEAGRVYGFPFGGFEVRFTVSDGLLTVLSAYK,-1.82
16,HMPGRVITVMVNGKRVDLPFREEPYIFVDLFRYMDFDVERARGRIQLAINGKKAGYTDIIREGDSIEI,-2.54
17,HMLLTDGLERRIDGDKNLHIRISLPMLVKGQIKLAKSGNNESTVKGIFKIESYPGSHPRDVVTEIIEG,-0.236
18,HMTSGTLTLTQDTPVYTEPNKDGGVAYVQPQGDIQWDKYIFANGDNWYSFVQKNRDQEVRFYIAYSDVG,-0.561
19,HMFNKTKVPNFIDMNYYEEIEGNSEYDKFNFADPITKNDDTKAPGTVIDQTPEKGTRIDEEKTVIQLTIA,0.114
20,HMGANSAYMAMRDRIQQRLLAELSPGVTRSDTAEVRRVVERIFNETTAELGLPLSRLERNDIFDLVLADIL,-1.85
21,HMKTDFEIDITVKASSLRVVASPGGDELVGTVTRGDRVTQLATPKDGWILIKMTDGRLGYVPESLLLFP,-1.87
22,HMLPSDLDEGNRRRQLIEGAARLFRAKGFDGTSTRDIAAAAGMRSGSPFYHFDSKNALLYVVVQEGM,-0.0127
23,HMAPKRIVLRFGKDISDKPIIYYLVKDYDLVINILKANVNPNKEGTLVLELSGENYDKGIEFLISQGVTVQ,-1.8
24,HMKKTETVRFTTNVTHGTKIKETDVEVVKISNSALPDKVVKNKTEVIGKYATADLFKGDFATENKVTD,0.142
